Biological target: insulin receptor, endogenous in 3T3-L1 preadipocytes (UniProt P15208)
Test: cell-based or functional assay

Sequence of UniProt P15208 (P15208 28-1372 limits assumed): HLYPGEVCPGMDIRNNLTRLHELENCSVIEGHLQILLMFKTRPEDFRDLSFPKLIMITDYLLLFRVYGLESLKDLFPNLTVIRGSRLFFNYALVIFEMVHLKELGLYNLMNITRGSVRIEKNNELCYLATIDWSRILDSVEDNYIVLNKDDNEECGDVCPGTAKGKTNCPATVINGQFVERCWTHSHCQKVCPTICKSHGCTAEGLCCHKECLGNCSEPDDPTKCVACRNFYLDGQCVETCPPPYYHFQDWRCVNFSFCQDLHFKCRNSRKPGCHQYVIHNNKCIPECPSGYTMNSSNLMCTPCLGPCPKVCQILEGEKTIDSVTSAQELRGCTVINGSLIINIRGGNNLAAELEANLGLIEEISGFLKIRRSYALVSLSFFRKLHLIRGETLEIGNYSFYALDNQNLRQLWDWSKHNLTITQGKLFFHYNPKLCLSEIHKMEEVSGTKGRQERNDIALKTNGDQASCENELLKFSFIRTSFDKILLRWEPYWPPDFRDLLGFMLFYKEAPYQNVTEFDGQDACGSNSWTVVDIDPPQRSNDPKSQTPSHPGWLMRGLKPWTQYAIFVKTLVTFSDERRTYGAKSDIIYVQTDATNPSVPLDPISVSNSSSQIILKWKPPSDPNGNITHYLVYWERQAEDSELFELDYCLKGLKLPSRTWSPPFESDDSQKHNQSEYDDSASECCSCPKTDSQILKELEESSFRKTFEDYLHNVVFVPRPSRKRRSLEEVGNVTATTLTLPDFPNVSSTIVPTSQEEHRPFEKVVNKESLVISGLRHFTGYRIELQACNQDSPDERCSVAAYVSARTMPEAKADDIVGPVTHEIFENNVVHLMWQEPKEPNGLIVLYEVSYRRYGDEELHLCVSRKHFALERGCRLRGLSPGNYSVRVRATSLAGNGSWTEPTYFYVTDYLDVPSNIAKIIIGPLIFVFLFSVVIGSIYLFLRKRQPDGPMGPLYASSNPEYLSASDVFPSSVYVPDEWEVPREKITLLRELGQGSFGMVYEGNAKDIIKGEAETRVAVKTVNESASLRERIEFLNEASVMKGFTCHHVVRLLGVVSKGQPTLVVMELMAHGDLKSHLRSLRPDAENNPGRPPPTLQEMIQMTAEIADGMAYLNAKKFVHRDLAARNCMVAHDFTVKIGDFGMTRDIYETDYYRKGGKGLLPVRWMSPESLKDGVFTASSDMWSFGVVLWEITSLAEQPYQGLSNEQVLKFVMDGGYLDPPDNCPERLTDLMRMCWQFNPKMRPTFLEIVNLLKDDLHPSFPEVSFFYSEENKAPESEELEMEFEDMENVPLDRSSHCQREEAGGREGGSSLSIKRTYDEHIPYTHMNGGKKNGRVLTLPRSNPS

| insulin-stimulated Akt-Ser473 peak phosphorylation, enhancement by overexpression [%] | insulin-stimulated ERK peak phosphorylation, enhancement by overexpression [%] | Substance |
| --- | --- | --- |
| 94 | 67 | Gpc4Δ529SAG531::HHHHHH (ΔGpc4), soluble mutant lacking the GPI anchor attachment site, with N-terminal 6xHis tag (from UniProt P51655 19-528; P51655 532-557) |
| 140 | 100 | native Gpc4 with HA-tag inserted after the signal peptide, stably overexpressed in 3T3-L1 cells (from UniProt P51655 19-529) |
